{"source": "the RNAGym collection of RNA variant scans (doi:10.7554/elife.80360)", "parents": {"B1": {"name": "Hammerhead Ribozyme (parent)", "chain": "ACCGGAUGUGCUUUCCGGUCUGAUGAGUCCGUGAGGACGAAACAG"}}}
{"variants_of": "B1", "experiment": "self-cleavage, relative activity (ratio to wild type); higher = more cleavage; co-transcriptional"}
{"variant": "A1C C43U", "self-cleavage": 0.5}
{"variant": "A1C G4A", "self-cleavage": 0.406}
{"variant": "A1C G4C", "self-cleavage": 0.472}
{"variant": "A1C G4U", "self-cleavage": 0.353}
{"variant": "A1C G5A", "self-cleavage": 0.483}
{"variant": "A1C G5C", "self-cleavage": 0.286}
{"variant": "A1C G5U", "self-cleavage": 0.444}
{"variant": "A1C G8A", "self-cleavage": 0.409}
{"variant": "A1C G8C", "self-cleavage": 0.432}
{"variant": "A1C G8U", "self-cleavage": 0.465}
{"variant": "A1C G10A", "self-cleavage": 0.38}
{"variant": "A1C G10C", "self-cleavage": 0.397}
{"variant": "A1C G10U", "self-cleavage": 0.339}
{"variant": "A1C G17A", "self-cleavage": 0.391}
{"variant": "A1C G17C", "self-cleavage": 0.391}
{"variant": "A1C G17U", "self-cleavage": 0.346}
{"variant": "A1C G18A", "self-cleavage": 0.434}
{"variant": "A1C G18C", "self-cleavage": 0.399}
{"variant": "A1C G18U", "self-cleavage": 0.353}
{"variant": "A1C G22A", "self-cleavage": 0.396}
{"variant": "A1C G22C", "self-cleavage": 0.352}
{"variant": "A1C G22U", "self-cleavage": 0.466}
{"variant": "A1C G25A", "self-cleavage": 0.255}
{"variant": "A1C G25C", "self-cleavage": 0.313}
{"variant": "A1C G25U", "self-cleavage": 0.377}
{"variant": "A1C G27A", "self-cleavage": 0.332}
{"variant": "A1C G27C", "self-cleavage": 0.357}
{"variant": "A1C G27U", "self-cleavage": 0.328}
{"variant": "A1C G31A", "self-cleavage": 0.454}
{"variant": "A1C G31C", "self-cleavage": 0.503}
{"variant": "A1C G31U", "self-cleavage": 0.561}
{"variant": "A1C G33A", "self-cleavage": 0.57}
{"variant": "A1C G33C", "self-cleavage": 0.321}
{"variant": "A1C G33U", "self-cleavage": 0.561}
{"variant": "A1C G35A", "self-cleavage": 0.404}
{"variant": "A1C G35C", "self-cleavage": 0.406}
{"variant": "A1C G35U", "self-cleavage": 0.435}
{"variant": "A1C G36A", "self-cleavage": 0.394}
{"variant": "A1C G36C", "self-cleavage": 0.365}
{"variant": "A1C G36U", "self-cleavage": 0.401}
{"variant": "A1C G39A", "self-cleavage": 0.438}
{"variant": "A1C G39C", "self-cleavage": 0.344}
{"variant": "A1C G39U", "self-cleavage": 0.341}
{"variant": "A1C G45A", "self-cleavage": 0.578}
{"variant": "A1C G45C", "self-cleavage": 0.441}
{"variant": "A1C G45U", "self-cleavage": 0.437}
{"variant": "A1C U7A", "self-cleavage": 0.29}
{"variant": "A1C U7C", "self-cleavage": 0.38}
{"variant": "A1C U7G", "self-cleavage": 0.377}
{"variant": "A1C U9A", "self-cleavage": 0.399}
{"variant": "A1C U9C", "self-cleavage": 0.394}
{"variant": "A1C U9G", "self-cleavage": 0.346}
{"variant": "A1C U12A", "self-cleavage": 0.471}
{"variant": "A1C U12C", "self-cleavage": 0.373}
{"variant": "A1C U12G", "self-cleavage": 0.325}
{"variant": "A1C U13A", "self-cleavage": 0.557}
{"variant": "A1C U13C", "self-cleavage": 0.513}
{"variant": "A1C U13G", "self-cleavage": 0.556}
{"variant": "A1C U14A", "self-cleavage": 0.348}
{"variant": "A1C U14C", "self-cleavage": 0.331}
{"variant": "A1C U14G", "self-cleavage": 0.426}
{"variant": "A1C U19A", "self-cleavage": 0.344}
{"variant": "A1C U19C", "self-cleavage": 0.365}
{"variant": "A1C U19G", "self-cleavage": 1.12}
{"variant": "A1C U21A", "self-cleavage": 0.343}
{"variant": "A1C U21C", "self-cleavage": 0.293}
{"variant": "A1C U21G", "self-cleavage": 0.337}
{"variant": "A1C U24A", "self-cleavage": 0.471}
{"variant": "A1C U24C", "self-cleavage": 0.34}
{"variant": "A1C U24G", "self-cleavage": 0.368}
{"variant": "A1C U28A", "self-cleavage": 0.389}
{"variant": "A1C U28C", "self-cleavage": 0.405}
{"variant": "A1C U28G", "self-cleavage": 0.302}
{"variant": "A1C U32A", "self-cleavage": 0.363}
{"variant": "A1C U32C", "self-cleavage": 0.514}
{"variant": "A1C U32G", "self-cleavage": 0.302}
{"variant": "A1G", "self-cleavage": 1.79}
{"variant": "A1G A6C", "self-cleavage": 0.838}
{"variant": "A1G A6G", "self-cleavage": 1.5}
{"variant": "A1G A6U", "self-cleavage": 1.08}
{"variant": "A1G A23C", "self-cleavage": 0.96}
{"variant": "A1G A23G", "self-cleavage": 0.413}
{"variant": "A1G A23U", "self-cleavage": 0.424}
{"variant": "A1G A26C", "self-cleavage": 0.571}
{"variant": "A1G A26G", "self-cleavage": 0.397}
{"variant": "A1G A26U", "self-cleavage": 0.971}
{"variant": "A1G A34C", "self-cleavage": 1.1}
{"variant": "A1G A34G", "self-cleavage": 1.5}
{"variant": "A1G A34U", "self-cleavage": 1.47}
{"variant": "A1G A37C", "self-cleavage": 1.64}
{"variant": "A1G A37G", "self-cleavage": 1.23}
{"variant": "A1G A37U", "self-cleavage": 1.02}
{"variant": "A1G A40C", "self-cleavage": 0.691}
{"variant": "A1G A40G", "self-cleavage": 0.388}
{"variant": "A1G A40U", "self-cleavage": 0.458}
{"variant": "A1G A41C", "self-cleavage": 0.461}
{"variant": "A1G A41G", "self-cleavage": 0.436}
{"variant": "A1G A41U", "self-cleavage": 0.42}
{"variant": "A1G A42C", "self-cleavage": 0.361}
{"variant": "A1G A42G", "self-cleavage": 0.344}
{"variant": "A1G A42U", "self-cleavage": 0.425}
{"variant": "A1G A44C", "self-cleavage": 0.858}
{"variant": "A1G A44G", "self-cleavage": 2.11}
{"variant": "A1G A44U", "self-cleavage": 0.968}
{"variant": "A1G C2A", "self-cleavage": 0.881}
{"variant": "A1G C2G", "self-cleavage": 0.735}
{"variant": "A1G C2U", "self-cleavage": 2.07}
{"variant": "A1G C3A", "self-cleavage": 0.699}
{"variant": "A1G C3G", "self-cleavage": 0.586}
{"variant": "A1G C3U", "self-cleavage": 1.34}
{"variant": "A1G C11A", "self-cleavage": 2.06}
{"variant": "A1G C11G", "self-cleavage": 2.12}
{"variant": "A1G C11U", "self-cleavage": 1.33}
{"variant": "A1G C15A", "self-cleavage": 1.06}
{"variant": "A1G C15G", "self-cleavage": 0.996}
{"variant": "A1G C15U", "self-cleavage": 1.68}
{"variant": "A1G C16A", "self-cleavage": 1.15}
{"variant": "A1G C16G", "self-cleavage": 0.778}
{"variant": "A1G C16U", "self-cleavage": 1.9}
{"variant": "A1G C20A", "self-cleavage": 0.54}
{"variant": "A1G C20G", "self-cleavage": 0.358}
{"variant": "A1G C20U", "self-cleavage": 0.971}
{"variant": "A1G C29A", "self-cleavage": 0.835}
{"variant": "A1G C29G", "self-cleavage": 1.02}
{"variant": "A1G C29U", "self-cleavage": 1.52}
{"variant": "A1G C30A", "self-cleavage": 1.3}
{"variant": "A1G C30G", "self-cleavage": 1.26}
{"variant": "A1G C30U", "self-cleavage": 1.84}
{"variant": "A1G C38A", "self-cleavage": 0.973}
{"variant": "A1G C38G", "self-cleavage": 0.865}
{"variant": "A1G C38U", "self-cleavage": 1.49}
{"variant": "A1G C43A", "self-cleavage": 0.444}
{"variant": "A1G C43G", "self-cleavage": 0.395}
{"variant": "A1G C43U", "self-cleavage": 0.597}
{"variant": "A1G G4A", "self-cleavage": 0.521}
{"variant": "A1G G4C", "self-cleavage": 0.32}
{"variant": "A1G G4U", "self-cleavage": 0.693}
{"variant": "A1G G5A", "self-cleavage": 1.04}
{"variant": "A1G G5C", "self-cleavage": 0.628}
{"variant": "A1G G5U", "self-cleavage": 0.805}
{"variant": "A1G G8A", "self-cleavage": 1.57}
{"variant": "A1G G8C", "self-cleavage": 1.47}
{"variant": "A1G G8U", "self-cleavage": 1.65}
{"variant": "A1G G10A", "self-cleavage": 1.92}
{"variant": "A1G G10C", "self-cleavage": 1.61}
{"variant": "A1G G10U", "self-cleavage": 1.99}
{"variant": "A1G G17A", "self-cleavage": 0.896}
{"variant": "A1G G17C", "self-cleavage": 0.585}
{"variant": "A1G G17U", "self-cleavage": 1.02}
{"variant": "A1G G18A", "self-cleavage": 0.906}
{"variant": "A1G G18C", "self-cleavage": 0.58}
{"variant": "A1G G18U", "self-cleavage": 0.894}
{"variant": "A1G G22A", "self-cleavage": 0.384}
{"variant": "A1G G22C", "self-cleavage": 0.376}
{"variant": "A1G G22U", "self-cleavage": 0.408}
{"variant": "A1G G25A", "self-cleavage": 0.43}
{"variant": "A1G G25C", "self-cleavage": 0.319}
{"variant": "A1G G25U", "self-cleavage": 0.353}
{"variant": "A1G G27A", "self-cleavage": 1.07}
{"variant": "A1G G27C", "self-cleavage": 0.879}
{"variant": "A1G G27U", "self-cleavage": 0.585}
{"variant": "A1G G31A", "self-cleavage": 1.79}
{"variant": "A1G G31C", "self-cleavage": 1.64}
{"variant": "A1G G31U", "self-cleavage": 1.88}
{"variant": "A1G G33A", "self-cleavage": 1.53}
{"variant": "A1G G33C", "self-cleavage": 1.67}
{"variant": "A1G G33U", "self-cleavage": 1.7}
